Reference: patent US20180371100A1 (Kyowa Kirin, published 2018)
Changes are numbered by the printed parent chain. “And” between values parts separate entries of the source, which are not always exact repeats. Identical values can stand only once.

B1: humanized Lym2 antibody LV0HV1 (antibody, V domains shown)
VH: EVQLVESGGGVVQPGRSLRLSCAASGFTFSNYYMAWVRQAPGKGLEWVATISYDGSSTYYRDSVKGRFTISRDNAKNSLYLQMNSLRAEDTATYYCARHRGYYYSGAGYFDYWGQGTMVTVSS
VL: DIVMTQTPLSLPVTPGESASISCRSSQSLEYSDGYTYLEWYLQKPGQSPQVLIYGVSNRFSGVPDRFSGSGSGTDFTLKISRVEAEDVGVYYCFQATHDPLTFGQGTKLEIK
notes: also called humanized anti-human CRTH2 antibody LV0HV1
B2: rat/human chimeric Lym2 antibody (antibody, V domains shown)
VH: B1 VH with V11L, L18M, R19K, G42K, N77S, S78T, N84D, A88S, T117V
VL: DVVLTQTPVSLSVTLGDQASISCRSSQSLEYSDGYTYLEWYLQKPGQSPQVLIYGVSNRFSGVPDRFIGSGSGTDFTLKISRVEPEDLGVYYCFQATHDPLTFGSGTKLEIK
notes: expressed in FUT8 knockout CHO cells; also called chLym2
B3: humanized Lym2 antibody LV4HV4 (antibody, V domains shown)
VH: B1 VH with L18M, N77S, T117V
VL: B1 VL with I2V, M4L, P15L, A85P

How the values were obtained:
FLAG fusion human CRTH2 = molecular target: T1, FLAG fusion human CRTH2 (human, UniProt Q9Y5Y4 1-395); experiment: flow cytometry on FLAG fusion human CRTH2-expressing 3Y1-B cells; logistic fit of Geomean; ± is the standard error
T1 construct: Expressed on rat 3Y1-B cells; also called human CRTH2 with a C terminal to which a FLAG tag was added; not shown: FLAG tag at the C terminal
T1 sequence: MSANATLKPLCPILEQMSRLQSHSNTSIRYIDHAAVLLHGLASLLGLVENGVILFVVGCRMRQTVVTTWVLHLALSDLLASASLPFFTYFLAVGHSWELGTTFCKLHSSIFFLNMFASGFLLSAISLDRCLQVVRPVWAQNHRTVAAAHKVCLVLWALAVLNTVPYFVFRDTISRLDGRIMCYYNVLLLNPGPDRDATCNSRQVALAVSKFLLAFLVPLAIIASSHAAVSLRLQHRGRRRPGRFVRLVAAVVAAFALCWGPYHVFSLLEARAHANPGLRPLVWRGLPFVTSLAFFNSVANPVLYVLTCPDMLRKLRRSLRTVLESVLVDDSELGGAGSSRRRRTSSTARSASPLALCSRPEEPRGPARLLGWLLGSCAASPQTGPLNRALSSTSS
Method: FLAG fusion human CRTH2-expressing 3Y1-B cells were peeled using a 0.25% trypsin-EDTA (NACALAI TESQUE, Inc.), washed with PBS, and suspended with SM. Next, the cells were seeded in a 96-well plate such that one well has 1×10⁵ cells. Further, chLym2 or each of the humanized Lym2 antibodies was added at each final concentrations of 50000, 12500, 3125, 781, 195, 49, 12, and 3 ng/mL to cause a reaction at 4° C. for 60 minutes.
After the cells were washed with SM, Goat F(ab′)₂ Anti-Human IgG PE (γchain specific) (Southern Biotech Inc.) diluted 500 times with SM was added to cause a reaction at 4° C. for 60 minutes. The cells were washed with SM and resuspended with 50 μL of SM, and the fluorescent intensity was measured by flow cytometry (BD Biosciences, FACS CantoII).
The data was analyzed by FLowJo 7.65 (Tomy Digital Biology Co., Ltd.), curve fitting of the Geomean value in each concentration was performed using a Logistic curve, and the 50% effective concentration (EC₅₀) value of the binding of chLym2 and each humanized Lym2 antibody and the standard error (SE) value thereof were calculated using R language (Ver. 3.02) which is a language for statistical analysis.

[1] = molecular target: T2, Azami-Green fusion cynomolgus monkey CRTH2 (cynomolgus monkey, UniProt Q9Y5Y4 1-395 (human entry)); experiment: flow cytometry on Azami-Green fusion cynomolgus monkey CRTH2-expressing CHO/DG44 cells, 2-30000 ng/mL
T2 construct: Expressed on CHO/DG44 cells; not shown: Azami-Green tag from vector phmAG1-MNLinker (MBL)
T2 chain: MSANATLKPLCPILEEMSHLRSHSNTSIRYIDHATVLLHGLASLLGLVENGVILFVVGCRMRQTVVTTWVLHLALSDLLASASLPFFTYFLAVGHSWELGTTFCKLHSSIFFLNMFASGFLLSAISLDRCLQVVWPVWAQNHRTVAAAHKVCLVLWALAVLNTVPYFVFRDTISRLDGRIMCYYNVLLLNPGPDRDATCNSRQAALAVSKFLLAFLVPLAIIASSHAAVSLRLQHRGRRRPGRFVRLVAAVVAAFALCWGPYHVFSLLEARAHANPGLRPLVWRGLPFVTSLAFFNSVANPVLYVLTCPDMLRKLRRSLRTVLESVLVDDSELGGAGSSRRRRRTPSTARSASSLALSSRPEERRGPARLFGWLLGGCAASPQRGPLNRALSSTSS
Method: The Azami-Green fusion human CRTH2-expressing CHO/DG44 cells and the cynomolgus monkey CRTH2-expressing CHO/DG44 cells established in Example 24 were peeled using 0.02% EDTA solution (NACALAI TESQUE, Inc.), washed with PBS, and suspended with SM. Next, the cells were seeded in a 96-well plate such that each well had 2×10⁵ cells, and humanized Lym2 antibody LV0HV1 or the anti-DNP IgG1 antibody at each of final concentrations 30000, 7500, 1875, 469, 117, 29, 7, and 2 ng/mL were added thereto to cause a reaction at 4° C. for 40 minutes.
After the cells were washed three times with SM, goat anti-Human IgG alexa 647 (Molecular Probes) diluted to a concentration of 10 μg/mL with SM was added thereto at 100 μL/well to perform a reaction at 4° C. for 40 minutes. The cells were washed with SM and resuspended with 100 μL of SM, and the fluorescent intensity was measured by flow cytometry (BD Biosciences, FACS CantoII).

Binder | EC50 (FLAG fusion human CRTH2) | binding result [1]
B1 | 0.78 µg/mL | binds
B2 | 0.5 µg/mL and 0.54 µg/mL | –
B3 | 0.68 µg/mL | –
